We go through 1 molecule from patent US20070253950A1 (Pfizer, published 2007).

The target in assay [1] is T1, human RAGE, full length, on cells (human, UniProt Q15109 23-404).
T1 construct: on transfected or infected 293 cells, stably transfected CHO cells, or endogenous in human lung sections; also called cell-surface hRAGE; 293-human RAGE
As to the kind of experiment: cell-based ELISA, transfected 293 cells. As for the experimental part:
(§1) Human embryonic kidney 293 cells (American Tissue Type Culture, Manassas, Va.) cells were plated at 5×10⁶ cells per 10 cm² tissue culture plate and cultured overnight at 37° C. The next day cells were transfected with RAGE expression plasmids (pAdori1-3 vector encoding mouse, human, baboon, cynomologus monkey or rabbit RAGE) using LF2000 reagent (Invitrogen, Carlsbad Calif.) at a 4:1 ratio of reagent to plasmid DNA using the manufacturers protocol. Cells were harvested 48 hrs post-transfection using trypsin, washed once with phosphate buffered saline (PBS), then suspended in growth media without serum at a concentration of 2×10⁶ cells/ml.
(§2) Primary antibodies at 1 μg/ml were serially diluted at 1:2 or 1:3 in PBS containing 1% bovine serum albumin (BSA) in a 96-well plate. RAGE-transfected 293 cells or control parental 293 cells (50 μl) at 2×10⁶ cells/ml in serum-free growth medium were added to U-bottom 96 well plate for a final concentration of 1×10⁵ cells/well. The cells were centrifuged at 1600 rpm for 2 minutes. The supernatants were gently discarded by hand with a one-time swing and the plate was patted gently to loose the cell pellet. The diluted primary anti-RAGE antibodies or isotype-matching control antibodies (100 μl) in cold PBS containing 10% fetal calf serum (FCS) were added to the cells and incubated on ice for 1 hour. The cells were stained with 100 μl of diluted secondary anti-IgG antibody HRP conjugates (Pierce Biotechnology, Rockford, Ill.) on ice for 1 hour. Following each step of primary antibody and secondary antibody incubations, the cells were washed 3 times with ice-cold PBS. 100 μl of substrate TMB1 component (BIO FX, TMBW-0100-01) was added to the plate and incubated for 5-30 minutes at room temperature. The color development was stopped by adding 100 μl of 0.18M H₂SO₄. The cells were centrifuged and the supernatants are transferred to a fresh plate and read at 450 nm (Soft MAX pro 4.0, Molecular Devices Corporation, Sunnyvale, Calif.).
In general terms: ELISA stands for enzyme-linked immunosorbent assay.

For assay [2], the target named is T2, baboon RAGE, on cells (baboon, UniProt Q15109 23-404 (human entry)).
T2 construct: on transfected 293 cells or endogenous in lung sections; also called 293-baboon RAGE; RAGE in baboon lung
T2 chain: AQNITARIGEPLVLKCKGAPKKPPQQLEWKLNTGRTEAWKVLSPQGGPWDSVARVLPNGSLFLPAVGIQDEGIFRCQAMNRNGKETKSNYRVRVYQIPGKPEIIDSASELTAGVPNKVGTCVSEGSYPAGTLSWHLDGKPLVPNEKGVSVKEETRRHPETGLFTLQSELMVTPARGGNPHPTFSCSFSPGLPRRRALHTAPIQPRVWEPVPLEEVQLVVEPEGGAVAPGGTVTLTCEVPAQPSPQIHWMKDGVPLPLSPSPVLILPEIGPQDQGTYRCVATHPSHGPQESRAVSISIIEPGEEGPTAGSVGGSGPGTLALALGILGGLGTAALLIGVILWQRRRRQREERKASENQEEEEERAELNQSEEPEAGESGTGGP
Briefly: cell-based ELISA, transfected 293 cells. As for the experimental part:
as §1, §2

Assay [3] deals with T3, cynomolgus monkey RAGE, on cells (cynomolgus monkey, UniProt Q15109 23-404 (human entry)).
T3 construct: on transfected 293 cells or endogenous in lung sections; also called 293-cyno monkey RAGE; RAGE in monkey lung
T3 chain: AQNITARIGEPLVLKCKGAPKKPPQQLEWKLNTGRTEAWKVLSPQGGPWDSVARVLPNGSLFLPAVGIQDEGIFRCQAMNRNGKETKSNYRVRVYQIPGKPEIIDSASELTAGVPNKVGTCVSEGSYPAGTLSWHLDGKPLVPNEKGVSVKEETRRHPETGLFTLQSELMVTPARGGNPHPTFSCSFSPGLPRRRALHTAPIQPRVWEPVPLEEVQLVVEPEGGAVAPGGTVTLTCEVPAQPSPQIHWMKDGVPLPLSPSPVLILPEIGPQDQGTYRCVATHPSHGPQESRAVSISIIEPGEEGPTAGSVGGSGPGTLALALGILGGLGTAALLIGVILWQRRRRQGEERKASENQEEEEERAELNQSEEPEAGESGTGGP
Briefly: cell-based ELISA, transfected 293 cells. As for the experimental part: as §1, §2

Assay [4] concerns the target T4, murine RAGE, full length, on cells (murine, UniProt Q62151 23-402).
T4 construct: on transfected or infected 293 cells; also called 293-murine RAGE; cell-surface mRAGE
T4 chain: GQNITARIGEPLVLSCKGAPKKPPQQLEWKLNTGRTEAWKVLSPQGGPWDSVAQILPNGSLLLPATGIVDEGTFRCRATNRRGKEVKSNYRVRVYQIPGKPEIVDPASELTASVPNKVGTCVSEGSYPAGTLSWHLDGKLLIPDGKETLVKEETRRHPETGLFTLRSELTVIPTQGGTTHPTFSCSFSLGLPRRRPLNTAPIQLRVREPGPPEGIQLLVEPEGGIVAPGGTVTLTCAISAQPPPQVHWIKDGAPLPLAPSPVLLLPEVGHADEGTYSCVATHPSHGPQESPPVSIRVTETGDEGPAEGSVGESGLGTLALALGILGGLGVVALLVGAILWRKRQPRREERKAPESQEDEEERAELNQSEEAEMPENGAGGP
As to the kind of experiment: cell-based ELISA, transfected 293 cells. As for the experimental part:
as §1, §2

In assay [5] the target is T5, murine RAGE-strep tag fusion protein (murine, UniProt Q62151 23-343).
T5 construct: also called mRAGE-strep; mRAGE-SA
T5 chain: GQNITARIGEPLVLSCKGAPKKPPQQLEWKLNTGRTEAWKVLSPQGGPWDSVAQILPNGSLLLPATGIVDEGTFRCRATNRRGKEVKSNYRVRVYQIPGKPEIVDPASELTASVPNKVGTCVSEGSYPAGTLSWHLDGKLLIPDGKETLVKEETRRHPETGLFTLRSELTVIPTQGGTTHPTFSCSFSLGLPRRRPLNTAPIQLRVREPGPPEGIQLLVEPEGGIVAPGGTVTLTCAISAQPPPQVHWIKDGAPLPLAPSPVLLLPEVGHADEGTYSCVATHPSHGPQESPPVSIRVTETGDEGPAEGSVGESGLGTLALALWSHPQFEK
As to the kind of experiment: BIACORE capture assay: mRAGE-SA (SA-Mu RAGE) over antibody captured on anti-human Fc; 1:1 Langmuir global fit; FC3. As for the experimental part: The assays were performed by coating anti-human Fc antibodies onto a CM5 BIA chip with 5000 RU (pH 5.0, 7 min.) in flow cells 1-4. Each antibody was captured by flowing at 2.0 μg/ml over the anti-Fc antibodies in flow cells 2-4 (flow cell 1 was used as a reference).
(In general: In SPR one partner is held on a chip, and binding of the other changes the refractive index at the surface.)

B1: chimeric XT-M4 (antibody, V domains shown)
VH: EVQLVESGGGLVQPGRSLKLSCVVSGFTFNNYWMTWIRQTPGKGLEWVASINNSGDNTYYPDSVKDRFTISRDNAKSTLYLQMNSLRSEDTATYYCTRGGDITTGFDYWGQGVMVTVSS
VL: DIQMTQSPSSMSVSLGDTITITCRASQDVGIYVNWFQQKPGKSPRRMIYRATNLADGVPSRFSGSRSGSIYSLTISSLESEDVADYHCLEFDEHPLTFGSGTKVEIK
modifications: N-linked oligosaccharide at Asn52 (CDR2) on part of the heavy chains
notes: rat XT-M4 variable regions fused to human kappa light chain and human IgG1 heavy chain constant regions; L234A and G237A in the human IgG1 Fc region; also called chimeric antibody XT-M4; XT-M4-A-1
As usually defined, the EC50 is the concentration giving half of the maximal effect. One may read the Kd as the equilibrium constant for the complex coming apart. The koff is the rate constant with which the complex falls apart. In general, kon refers to a measure of how fast the partners come together. B1: the half-maximal effective concentration (EC50) in assay [1] is approximately 0.8 nM; in assay [2], approximately 1.25 nM; in assay [3], approximately 1.66 nM; in assay [4], approximately 1.5 nM. The equilibrium dissociation constant (Kd) in assay [5] was 1.9 nM. The same molecule returned an off-rate (koff) in assay [5] of 0.0041 s⁻¹. Further, in assay [5], the kon came to 2.1e+06 M⁻¹ s⁻¹.
